Test results taken from the supplement of paper PMC12764529.
± gives the half width of the 95% confidence interval.

What was measured:
[1] = folding stability dG unfold from chymotrypsin proteolysis; higher = more stable
Procedure, shortened: (§1)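 Unfolding free energy was derived, per protease or combined, against a sequence-predicted unfolded-state K50 and a shared folded-state K50, starting from K50 inferred by Bayesian fitting of sequencing counts. Digestion with trypsin and chymotrypsin was carried out on designed mini-proteins under 80 residues without cysteine in a PA-tagged cDNA display construct. Only designs with AlphaFold2 dimer inter-PAE above 15 were kept.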

[2] = folding stability dG unfold from trypsin proteolysis; higher = more stable
Procedure, shortened: as §1

[3] = folding stability dG unfold (combined trypsin and chymotrypsin); higher = more stable
Procedure, shortened: as §1

| Sequence | folding stability dG unfold [1] | folding stability dG unfold [2] | folding stability dG unfold [3] |
| --- | --- | --- | --- |
| SAGKSIKILITTEKEEEAKKLAEEIKKELPKLGYKVEVYIMPKEEFEKFLKEFVVPEPDGKLVKVDLSSAGG [r19_187_TrMRF] | 2.09 ± 0.1 kcal/mol | 0.482 ± 0.056 kcal/mol | 1.48 ± 0.19 kcal/mol |
| SAGKSKPILVEITFPNGEKAKVLAVEFPNTVYVFAVVTSKDGSKYLVEAIIDVSPTKIKIFTKSYPLESAGG [r19_385_TrMRF] | 4.1 ± 0.043 kcal/mol | 2.56 ± 0.1 kcal/mol | 3.64 ± 0.081 kcal/mol |
| SAGKTIVLPPEMTKEQIEALAKELAEEEGFEKVELVEYDEEKGVFTVKVKVDGKEKTIEIKIVSPEELESAG [r5_912_TrROS_Hall] | 2.622 ± 0.022 kcal/mol | 1.62 ± 0.046 kcal/mol | 2.3 ± 0.084 kcal/mol |
| SAGKTIVVPTEEEAEKLAKELAEETGKEVEIVKVEKEKKKDGYEVYTIKVKLKDNNKTIEIKIVRPKEKSAG [r5_173_TrROS_Hall] | 1.47 ± 0.11 kcal/mol | 1.52 ± 0.17 kcal/mol | 1.55 ± 0.25 kcal/mol |
| SAGKTRTINFPGFQIQVQRDPDGKKEITIMFDNPEQRKQMIEQNPFLREFIEWAEKDGLKVEIHVMPPKSAG [r14_873_TrROS] | 2.04 ± 0.15 kcal/mol | 1.85 ± 0.071 kcal/mol | 2.06 ± 0.18 kcal/mol |
| SAGKTVTKTKTEYEYKDGKLEKKKVKTETIEPKPKIEVKEVKITLKDGSEVTAKIVSIDPKTKKVVIELSAG [r5_735_TrROS_Hall] | -0.0238 ± 0.075 kcal/mol | 0.26 ± 0.099 kcal/mol | 0.0452 ± 0.23 kcal/mol |
| SAGKVKLTIMIHPMRKNGKPRYYVMVKIEIPGGPKAEIMFPFDSPEQAKNLLEDLGLKVEPEDISIMRWSAG [r5_233_TrROS] | 1.94 ± 0.12 kcal/mol | 1.89 ± 0.022 kcal/mol | 1.94 ± 0.051 kcal/mol |
| SAGLIKIERTGDKLTITIPLKGAPPGAQVRIMVFTDGKVEEHWIPPGKEVEITIPPDNIHIFIQIYPPDSAG [r5_867_TrROS] | 3.15 ± 0.14 kcal/mol | 3.22 ± 0.38 kcal/mol | 3.33 ± 0.32 kcal/mol |
| SAGLKEIAKKLGLSEEKIKIKEIKKKKKVVYDKKTKKKYEKEEIVIKIEIVDPKTKKKYEIEIPLEEIKSAG [r5_517_TrROS_Hall] | 2.63 ± 0.18 kcal/mol | 2.28 ± 0.18 kcal/mol | 2.55 ± 0.22 kcal/mol |
| SAGLKFSITKAEWENGYLTVKVMVTGPDGQSQPFTITIRIKPVPKPPPKMTEEKDPNGKKKWEYKDPDSAGG [r19_172_TrROS] | 2.6 ± 0.072 kcal/mol | 2.26 ± 0.11 kcal/mol | 2.47 ± 0.24 kcal/mol |
| SAGLKIVEDIRKKLEEEGYDVKVKYEIKPEPKDGKYIITIEVTIKDEKGNEVPIGKETIVIPLEEYEKSSAG [r5_413_JUSTAS] | 2.74 ± 0.083 kcal/mol | 1.27 ± 0.18 kcal/mol | 2.28 ± 0.16 kcal/mol |
| SAGLKVKIVKAEVKNGYLTLEVEVTGKDGSKKPFKIKIKLKPVPKPKPVFKFTKLPNGEIKVEVFDPSSAGG [r19_172_TrMRF] | 3.212 ± 0.03 kcal/mol | 2.76 ± 0.062 kcal/mol | 3.04 ± 0.08 kcal/mol |
| SAGLLEVLRKIAEELGWELTSVEVHELPDGSVVATGEFRKGDRTYRVDIRYDPETGRVEVRLEPVPVPESAG [r14_784_TrMRF] | 5.51 ± 0.2 kcal/mol | 4.6 ± 0.22 kcal/mol | > 6 kcal/mol |
| SAGLNIPPEMTVDELVEFLKSLGVKSYKVEKTEDPESYVVTFEFPDFTVVMTFHPDSVTITVVPKDEPLSAG [r5_899_TrMRF] | 3.52 ± 0.061 kcal/mol | 3.14 ± 0.11 kcal/mol | 3.34 ± 0.14 kcal/mol |
| SAGLPIPEGATVKTLESSESVEGNKTVKTDKIIVTFPDGSTKEVEVVTTYDPNGNPTTTYIVGNKKIPLSAG [r5_507_JUSTAS] | 1.19 ± 0.058 kcal/mol | 1.45 ± 0.052 kcal/mol | 1.32 ± 0.059 kcal/mol |
| SAGMAEKIKAELEKKGYKYEIEEVKDPNNDKTYLIVKIYPKDGKEYIIIFDKEKGEVIKKIPSDEPNILSAG [r5_938_JUSTAS] | 1.59 ± 0.14 kcal/mol | 1.49 ± 0.13 kcal/mol | 1.64 ± 0.24 kcal/mol |
| SAGMDLKIEEEEDPLSGSRLFRIELRDPDGKYNLTVVVLKENGKIKAVLVLRENTGEPLTLPELVELLESAG [r5_872_TrMRF] | 3.773 ± 0.017 kcal/mol | 2.83 ± 0.19 kcal/mol | 3.43 ± 0.086 kcal/mol |
| SAGMDPSDPNSITTLTTEVEPLPDGSTRVTTYTKLPDGTIVKNVTTLDPAGNVLTTTTTPIPPEALNASAGG [r19_285_JUSTAS] | 3.85 ± 0.06 kcal/mol | 3.56 ± 0.17 kcal/mol | 3.75 ± 0.096 kcal/mol |
| SAGMDVKELAKEAMEKYPPGDKEIEFEIPVGPRPFKVKIDYEPDPENGKPRPKITIENPDNGKKTEFTFSAG [r5_236_TrROS] | 0.61 ± 0.19 kcal/mol | -1.07 ± 0.74 kcal/mol | 0.11 ± 0.17 kcal/mol |
| SAGMEATIEIVGHPGDKEAIAVLRPEDKTVVIYKNKDGSYTVEVFEPNPARLIERKELPLEEAIKEALSAGG [r19_188_TrMRF] | 1.45 ± 0.064 kcal/mol | -0.343 ± 0.12 kcal/mol | 0.987 ± 0.13 kcal/mol |
| SAGMELELELEFRLEDGLEVRIRVKVRFDPETGELVIEEVRIEVRPLPPPPPLVLTDEELEALGLEPEESAG [r5_393_TrROS_Hall] | 3.32 ± 0.13 kcal/mol | 3.6 ± 0.23 kcal/mol | 3.6 ± 0.16 kcal/mol |

| Sequence | folding stability dG unfold [1] | folding stability dG unfold [2] | folding stability dG unfold [3] |
| --- | --- | --- | --- |
| SAGMELKVEIVAPKEVLLEKVKELEATIKKAFPKVKVEVEAKIEPLEGDEWKATVVIKIEPLPEDEPAESAG [r5_936_TrMRF] | 3.59 ± 0.18 kcal/mol | 3.87 ± 0.27 kcal/mol | 3.91 ± 0.78 kcal/mol |
| SAGMGSDVPVLTAVLSVLNPETGEEVTIEVPGRNDYGEGKLIRPVSPEDLLAAALAVADALLKDPSLKASAG [r5_426_TrMRF] | 0.24 ± 0.22 kcal/mol | 1.36 ± 0.036 kcal/mol | 0.804 ± 0.11 kcal/mol |
| SAGMIDVVVRVRLDVRPETVAEELRRRFPAIRRIEPVRVERRVEREPGRRYLLVHLRIELGDVPPELLRSAG [r5_326_TrMRF] | 3.714 ± 0.021 kcal/mol | 1.78 ± 0.032 kcal/mol | 3.33 ± 0.063 kcal/mol |
| SAGMIEITVEVPAEDMTEEELKELAEELARALREAGLPEDVKIVDVRVERLPDGTVRVTIKIEVKPPPSAGG [r19_87_TrROS_Hall] | 3.59 ± 0.44 kcal/mol | 4.24 ± 0.26 kcal/mol | 4.36 ± 0.39 kcal/mol |
| SAGMILTIRPEDGSEEIIPVPKEDIEKLIEDLEKKGIKVLSMTTSPDGVSTIPTQYPDGKKMTITVHLDSAG [r5_645_JUSTAS] | 0.677 ± 0.22 kcal/mol | 0.707 ± 0.098 kcal/mol | 0.677 ± 0.16 kcal/mol |
| SAGMITLPTRGPEELIERLRAIAEELGLSEEDIEQFLRDLAEHATIEQDGDLLLITFQPPVPALPGEPESAG [r5_717_TrMRF] | 1.91 ± 0.037 kcal/mol | 1.23 ± 0.071 kcal/mol | 1.74 ± 0.17 kcal/mol |
| SAGMITVPLPDGSVLELTVEKETVTTEVDPSTGKKRLVTETLMTNTGDLAVNGKVSPTTATLTTVVLESAGG [r19_246_JUSTAS] | 0.373 ± 0.045 kcal/mol | -0.36 ± 0.067 kcal/mol | 0.155 ± 0.069 kcal/mol |
| SAGMKAYIVSVEKNEDGTETIKLKVYFLDKNGKVVETKEITIKKGETIKITFPNGKTITVPAKDLKLVKSAG [r5_137_TrROS_Hall] | 3.703 ± 0.033 kcal/mol | 2.02 ± 0.083 kcal/mol | 3.24 ± 0.082 kcal/mol |
| SAGMKAYNIKELKIEKIEKKGNKIKIKISGKGKFYFKTFSNGSAIIYIKKTNKAYYIDSNGKIVYIKDTSAG [r5_348_TrMRF] | 1.56 ± 0.13 kcal/mol | 1.75 ± 0.12 kcal/mol | 1.76 ± 0.27 kcal/mol |
| SAGMKIEIEAEYDPESGTVTLHIKEEPEPGEPVEVKFPIKFLKDKVEIEAETEEPLDPEEILKKIKEELSAG [r5_478_TrMRF] | 0.835 ± 0.12 kcal/mol | -0.161 ± 0.14 kcal/mol | 0.513 ± 0.2 kcal/mol |
| SAGMKIEVKRLPGPGDYLFTLVDPELAARLKAVYPGLEEVIFPVGGPDSVPEEEIKERAEKELKELLLSAGG [r19_298_JUSTAS] | -0.66 ± 0.64 kcal/mol | -0.0847 ± 0.17 kcal/mol | -0.268 ± 0.31 kcal/mol |
| SAGMKIKIIKLDKNLEELSEEELKKLLEELAKKGLVEKKKDGKKVIPLTVIDKKTKKTYTFYIEIEKPPSAG [r5_243_TrROS_Hall] | 2.72 ± 0.057 kcal/mol | 1.36 ± 0.041 kcal/mol | 2.33 ± 0.17 kcal/mol |
| SAGMKIKVEVKETGETYEIEISEEELKKKLKEKFPEVKEITVVVEDPEDMSEEELREKALKAAEELLKSAGG [r19_298_TrROS_Hall] | 2.49 ± 0.051 kcal/mol | 1.59 ± 0.067 kcal/mol | 2.28 ± 0.18 kcal/mol |
| SAGMKITLPKGVKSIKVEEVNGKKVIYIEVDGKIFVYDLKTGKLYIYDKKTGEKKEITIKKGDTITLKSAGG [r19_138_TrROS_Hall] | 1.79 ± 0.067 kcal/mol | 1.03 ± 0.028 kcal/mol | 1.55 ± 0.07 kcal/mol |
| SAGMKITVVELDGKSPEELSEEELKKLAEELLKELFPDVKKVKKVTVKVERLPDGRLVLVEVEIEVEEPSAG [r5_526_TrROS_Hall] | 1.03 ± 0.089 kcal/mol | 2.18 ± 0.13 kcal/mol | 1.79 ± 0.13 kcal/mol |
| SAGMKIVEIEKKEDGTVKIKIEVNGEEKEIEVKVGETITLPDGSEIEVLEDGTIKVRPLPEPEVEEEESAGG [r19_17_TrROS_Hall] | 2 ± 0.17 kcal/mol | 3.24 ± 0.39 kcal/mol | 2.64 ± 0.26 kcal/mol |
| SAGMKKKITVKVKVKTEEEAEKLAEELEKELGLKVTVEKNEETGVYTITVEVSPEAVEALKKAGVEIESAGG [r19_306_TrROS_Hall] | 1.92 ± 0.083 kcal/mol | 1.93 ± 0.33 kcal/mol | 1.86 ± 0.28 kcal/mol |
| SAGMKKKKIKKVEIEIKKGEKTIRVKLENGEEIEYKFKEEDLEEALKKIAEKLGLKKGDKIKIVEIEIESAG [r5_923_TrROS_Hall] | 0.907 ± 0.13 kcal/mol | 1.16 ± 0.12 kcal/mol | 1.29 ± 0.33 kcal/mol |
| SAGMKKPPPPTVTIKIRVNGKTITITVYPDGTVTVTFENGEKKTIKMTPEEVEKLLKELEKKGYEIELVSAG [r5_753_TrROS_Hall] | 0.664 ± 0.33 kcal/mol | 2.51 ± 0.26 kcal/mol | 1.49 ± 0.48 kcal/mol |
| SAGMKKVKIETTEFREFEGGEREIVMKVYKPDGSEVATVVLPFPPDLSEEEMRERAEAEAKKLAEELGLSAG [r5_697_JUSTAS] | 0.579 ± 0.17 kcal/mol | 0.581 ± 0.094 kcal/mol | 0.636 ± 0.21 kcal/mol |
| SAGMKPEEVRVIEIPPGMTVEEIIEAIEKEGPLRIRVEGKELEFESKEDIEAAIRNAPEPVRIEVRRLSAGG [r19_95_TrROS_Hall] | 1.05 ± 0.092 kcal/mol | 0.865 ± 0.04 kcal/mol | 1 ± 0.089 kcal/mol |
